# Assay results reported in US20200199241A1 (Chugai, published 2020).
# T1: FcγRIIb (human, UniProt P31994 43-217, limits assumed)
# T1 construct: SPR analyte; also called FcγIIB; CD32
# T1 sequence: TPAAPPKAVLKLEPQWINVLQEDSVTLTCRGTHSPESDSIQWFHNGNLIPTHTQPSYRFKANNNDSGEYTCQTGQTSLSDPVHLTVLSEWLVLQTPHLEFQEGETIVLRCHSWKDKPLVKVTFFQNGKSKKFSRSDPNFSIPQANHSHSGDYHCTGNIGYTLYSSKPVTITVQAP
# T2: FcγRIIa type R (human, UniProt P12318 36-217)
# T2 construct: SPR analyte; also called FcγRIIaR; FcγRIIa(R)
# T2 chain: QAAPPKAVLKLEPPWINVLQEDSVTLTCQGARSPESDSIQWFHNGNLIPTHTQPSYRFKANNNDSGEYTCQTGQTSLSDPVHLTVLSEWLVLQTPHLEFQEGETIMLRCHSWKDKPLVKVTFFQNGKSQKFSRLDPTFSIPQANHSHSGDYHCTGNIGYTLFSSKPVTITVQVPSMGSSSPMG
# T3: FcγRIIa type H (human, UniProt P12318 36-217)
# T3 construct: SPR analyte; also called FcγRIIaH
# T3 sequence: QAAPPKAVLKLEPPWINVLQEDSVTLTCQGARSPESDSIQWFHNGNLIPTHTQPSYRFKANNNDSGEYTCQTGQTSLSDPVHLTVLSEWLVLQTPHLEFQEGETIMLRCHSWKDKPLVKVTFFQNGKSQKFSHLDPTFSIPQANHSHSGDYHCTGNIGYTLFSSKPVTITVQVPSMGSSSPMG
# Experiments:
# FcγRIIb [1] = biological target: T1, FcγRIIb; assay: ratio of SPR KDs; reference IL6R-B3/IL6R-L
# FcγRIa = biological target: T4, FcγRIa (human, UniProt P12314 16-292, limits assumed); assay: SPR (Biacore), antibody captured, FcγR analyte
# T4 construct: SPR analyte; also called CD64
# T4 sequence (P12314 16-292 limits assumed): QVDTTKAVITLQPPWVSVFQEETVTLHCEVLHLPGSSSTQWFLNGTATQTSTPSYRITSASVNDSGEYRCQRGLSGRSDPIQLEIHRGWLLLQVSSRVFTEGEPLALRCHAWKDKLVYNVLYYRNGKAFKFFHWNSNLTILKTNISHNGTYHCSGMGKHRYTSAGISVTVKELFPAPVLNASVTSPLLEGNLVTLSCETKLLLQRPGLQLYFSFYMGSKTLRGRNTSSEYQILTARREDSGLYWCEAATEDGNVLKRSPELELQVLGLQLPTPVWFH
# From the text: (§1) Furthermore, KD(IIaR)/KD(IIb) and KD(IIaH)/KD(IIb) in the table respectively represent the value obtained by dividing the KD value of each variant for FcγRIIaR by the KD value of each variant for FcγRIIb, and the value obtained by dividing the KD value of each variant for FcγRIIaH by the KD value of each variant for FcγRIIb. KD(IIb) of the parent polypeptide/KD(IIb) of the altered polypeptide refers to the value obtained by dividing the KD value of the parent polypeptide for FcγRIIb by the KD value of each variant for FcγRIIb.
# FcγRIIa type R [2] = biological target: T2, FcγRIIa type R; assay: SPR (Biacore), antibody captured, FcγR analyte
# From the text: as §1
# FcγRIIa type H = biological target: T3, FcγRIIa type H; assay: SPR (Biacore), antibody captured, FcγR analyte
# From the text: as §1
# FcγRIIb [3] = biological target: T1, FcγRIIb; assay: SPR (Biacore), antibody captured, FcγR analyte
# From the text: as §1
# FcγRIIIa type V = biological target: T5, FcγRIIIa type V (human, UniProt P08637 17-208, limits assumed); assay: SPR (Biacore), antibody captured, FcγR analyte
# T5 construct: SPR analyte; allotype V158 was used here; also called FcγRIIIaV; FcγRIIIa(V)
# T5 sequence (P08637 other isoform, or with tags, fused parts or gaps limits assumed): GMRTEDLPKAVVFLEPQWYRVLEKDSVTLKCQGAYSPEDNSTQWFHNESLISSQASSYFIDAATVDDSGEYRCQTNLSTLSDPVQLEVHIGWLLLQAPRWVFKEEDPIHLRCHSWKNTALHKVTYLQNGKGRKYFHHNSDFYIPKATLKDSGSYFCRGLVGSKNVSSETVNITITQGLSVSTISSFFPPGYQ
# From the text: as §1
# FcγRIIb [4] = biological target: T1, FcγRIIb; assay: ratio of SPR KDs: KD for FcγRIIaH over KD for FcγRIIb
# From the text: (§2) Furthermore, KD(IIaR)/KD(IIb) and KD(IIaH)/KD(IIb) in the table respectively represent the value obtained by dividing the KD value of each variant for FcγRIIaR by the KD value of each variant for FcγRIIb, and the value obtained by dividing the KD value of each variant for FcγRIIaH by the KD value of each variant for FcγRIIb.
# FcγRIIb [5] = biological target: T1, FcγRIIb; assay: ratio of SPR KDs: KD for FcγRIIaR over KD for FcγRIIb
# From the text: as §2
# FcγRIIa type R [6] = biological target: T2, FcγRIIa type R; assay: ratio of SPR KDs; stronger receptor here FcγRIIaR; reference IL6R-B3/IL6R-L (FcγRIIaH)
# From the text: as §1
KD(IIb) of the parent polypeptide/KD(IIb) of altered polypeptide (FcγRIIb [1]),Kd (FcγRIa) [µM],Kd (FcγRIIa type R [2]) [µM],Kd (FcγRIIa type H) [µM],Kd (FcγRIIb [3]) [µM],Kd (FcγRIIIa type V) [µM],KD(IIaH)/KD(IIb) (FcγRIIb [4]),KD(IIaR)/KD(IIb) (FcγRIIb [5]),KD of the stronger of FcγRIIaR/FcγRIIaH binding of the variant / that of the parent polypeptide (FcγRIIa type R [6]),Binder
5.4,0.027,9.7,34,0.57,57,59.9,17.1,12.6,"IL6R-BP086/IL6R-L (antibody, human IgG1) heavy: QVQLQESGPGLVKPSETLSLTCAVSGHSISHDHAWSWVRQPPGEGLEWIGFISYSGITNYNPSLQGRVTISRDNSKNTLYLQMNSLRAEDTAVYYCARSLARTTAMDYWGEGTLVTVSSASTKGPSVFPLAPSSKSTSGGTAALGCLVKDYFPEPVTVSWNSGALTSGVHTFPAVLQSSGLYSLSSVVTVPSSSLGTQTYICNVNHKPSNTKVDKKVEPKSCDKTHTCPPCPAPELLGGDSVFLFPPKPKDTLMISRTPEVTCVVVDVSHEDPEVKFNWYVDGVEVHNAKTKPREEQYNSTYRVVSVLTVLHQDWLNGKEYKCKVSNAALPKPIEKTISKAKGQPREPQVYTLPPSRDELTKNQVSLTCLVKGFYPSDIAVEWESNGQPENNYKTTPPVLDSDGSFFLYSKLTVDKSRWQQGNVFSCSVMHEALHNHYTQESLSLSP light: DIQMTQSPSSLSASVGDRVTITCRASQDISSYLNWYQQKPGKAPKLLIYYTSRLHSGVPSRFSGSGSGTDFTFTISSLQPEDIATYYCQQGNTLPYTFGQGTKVEIK"
5.4,0.016,5.7,27,0.57,62,47.1,10,7.5,"IL6R-BP143/IL6R-L (antibody, human IgG1) heavy: QVQLQESGPGLVKPSETLSLTCAVSGHSISHDHAWSWVRQPPGEGLEWIGFISYSGITNYNPSLQGRVTISRDNSKNTLYLQMNSLRAEDTAVYYCARSLARTTAMDYWGEGTLVTVSSASTKGPSVFPLAPSSKSTSGGTAALGCLVKDYFPEPVTVSWNSGALTSGVHTFPAVLQSSGLYSLSSVVTVPSSSLGTQTYICNVNHKPSNTKVDKKVEPKSCDKTHTCPPCPAPEYLGGDSVFLFPPKPKDTLMISRTPEVTCVVVDVSHEDPEVKFNWYVDGVEVHNAKTKPREEQYNSTYRVVSVLTVLHQDWLNGKEYKCKVSNAALPAPIEKTISKAKGQPREPQVYTLPPSRDELTKNQVSLTCLVKGFYPSDIAVEWESNGQPENNYKTTPPVLDSDGSFFLYSKLTVDKSRWQQGNVFSCSVMHEALHNHYTQESLSLSP light: DIQMTQSPSSLSASVGDRVTITCRASQDISSYLNWYQQKPGKAPKLLIYYTSRLHSGVPSRFSGSGSGTDFTFTISSLQPEDIATYYCQQGNTLPYTFGQGTKVEIK"
5.1,0.038,9.7,21,0.61,44,34.7,16,12.6,"IL6R-BP087/IL6R-L (antibody, human IgG1) heavy: QVQLQESGPGLVKPSETLSLTCAVSGHSISHDHAWSWVRQPPGEGLEWIGFISYSGITNYNPSLQGRVTISRDNSKNTLYLQMNSLRAEDTAVYYCARSLARTTAMDYWGEGTLVTVSSASTKGPSVFPLAPSSKSTSGGTAALGCLVKDYFPEPVTVSWNSGALTSGVHTFPAVLQSSGLYSLSSVVTVPSSSLGTQTYICNVNHKPSNTKVDKKVEPKSCDKTHTCPPCPAPEYLGGDSVFLFPPKPKDTLMISRTPEVTCVVVDVSHEDPEVKFNWYVDGVEVHNAKTKPREEQYNSTYRVVSVLTVLHQDWLNGKEYKCKVSNKALPKPIEKTISKAKGQPREPQVYTLPPSRDELTKNQVSLTCLVKGFYPSDIAVEWESNGQPENNYKTTPPVLDSDGSFFLYSKLTVDKSRWQQGNVFSCSVMHEALHNHYTQESLSLSP light: DIQMTQSPSSLSASVGDRVTITCRASQDISSYLNWYQQKPGKAPKLLIYYTSRLHSGVPSRFSGSGSGTDFTFTISSLQPEDIATYYCQQGNTLPYTFGQGTKVEIK"
12.6,0.12,3.1,14,0.25,59,56.9,12.5,4,"IL6R-BP131/IL6R-L (antibody, human IgG1) heavy: QVQLQESGPGLVKPSETLSLTCAVSGHSISHDHAWSWVRQPPGEGLEWIGFISYSGITNYNPSLQGRVTISRDNSKNTLYLQMNSLRAEDTAVYYCARSLARTTAMDYWGEGTLVTVSSASTKGPSVFPLAPSSKSTSGGTAALGCLVKDYFPEPVTVSWNSGALTSGVHTFPAVLQSSGLYSLSSVVTVPSSSLGTQTYICNVNHKPSNTKVDKKVEPKSCDKTHTCPPCPAPDLLGDDSVFLFPPKPKDTLMISRTPEVTCVVVDVSHEDPEVKFNWYVDGVEVHNAKTKPREEQYNSTYRVVSVLTVLHQDWLNGKEYKCKVSNKALPKPIEKTISKAKGQPREPQVYTLPPSRDELTKNQVSLTCLVKGFYPSDIAVEWESNGQPENNYKTTPPVLDSDGSFFLYSKLTVDKSRWQQGNVFSCSVMHEALHNHYTQESLSLSP light: DIQMTQSPSSLSASVGDRVTITCRASQDISSYLNWYQQKPGKAPKLLIYYTSRLHSGVPSRFSGSGSGTDFTFTISSLQPEDIATYYCQQGNTLPYTFGQGTKVEIK"
10.2,0.0018,5.3,26,0.3,71,85.5,17.5,6.9,"IL6R-BP130/IL6R-L (antibody, human IgG1) heavy: QVQLQESGPGLVKPSETLSLTCAVSGHSISHDHAWSWVRQPPGEGLEWIGFISYSGITNYNPSLQGRVTISRDNSKNTLYLQMNSLRAEDTAVYYCARSLARTTAMDYWGEGTLVTVSSASTKGPSVFPLAPSSKSTSGGTAALGCLVKDYFPEPVTVSWNSGALTSGVHTFPAVLQSSGLYSLSSVVTVPSSSLGTQTYICNVNHKPSNTKVDKKVEPKSCDKTHTCPPCPAPDLLGGDSVFLFPPKPKDTLMISRTPEVTCVVVDVSHEDPEVKFNWYVDGVEVHNAKTKPREEQYNSTYRVVSVLTVLHQDWLNGKEYKCKMSNKALPKPIEKTISKAKGQPREPQVYTLPPSRDELTKNQVSLTCLVKGFYPSDIAVEWESNGQPENNYKTTPPVLDSDGSFFLYSKLTVDKSRWQQGNVFSCSVMHEALHNHYTQESLSLSP light: DIQMTQSPSSLSASVGDRVTITCRASQDISSYLNWYQQKPGKAPKLLIYYTSRLHSGVPSRFSGSGSGTDFTFTISSLQPEDIATYYCQQGNTLPYTFGQGTKVEIK"
33.1,0.12,1.4,8.4,0.093,37,89.9,15,1.8,"IL6R-BP149/IL6R-L (antibody, human IgG1) heavy: QVQLQESGPGLVKPSETLSLTCAVSGHSISHDHAWSWVRQPPGEGLEWIGFISYSGITNYNPSLQGRVTISRDNSKNTLYLQMNSLRAEDTAVYYCARSLARTTAMDYWGEGTLVTVSSASTKGPSVFPLAPSSKSTSGGTAALGCLVKDYFPEPVTVSWNSGALTSGVHTFPAVLQSSGLYSLSSVVTVPSSSLGTQTYICNVNHKPSNTKVDKKVEPKSCDKTHTCPPCPAPDYLGDDSVFLFPPKPKDTLMISRTPEVTCVVVDVSHEDPEVKFNWYVDGVEVHNAKTKPREEQDNSTYRVVSVLTVLHQDWLNGKEYKCKVSNAALPKPIEKTISKAKGQPREPQVYTLPPSRDELTKNQVSLTCLVKGFYPSDIAVEWESNGQPENNYKTTPPVLDSDGSFFLYSKLTVDKSRWQQGNVFSCSVMHEALHNHYTQESLSLSP light: DIQMTQSPSSLSASVGDRVTITCRASQDISSYLNWYQQKPGKAPKLLIYYTSRLHSGVPSRFSGSGSGTDFTFTISSLQPEDIATYYCQQGNTLPYTFGQGTKVEIK"
